We go through five molecules from US20150056222A1 (Regeneron, published 2015).

For assay [1], the target named is T1, monkey (macaca fascicularis) PRLR on HEK293 cells (macaca fascicularis, UniProt A0A2K5WXK1 25-619). Note: test concentration or dose not given here.
T1 construct: also called mfPRLR; HEK293/mfPRLR
T1 sequence: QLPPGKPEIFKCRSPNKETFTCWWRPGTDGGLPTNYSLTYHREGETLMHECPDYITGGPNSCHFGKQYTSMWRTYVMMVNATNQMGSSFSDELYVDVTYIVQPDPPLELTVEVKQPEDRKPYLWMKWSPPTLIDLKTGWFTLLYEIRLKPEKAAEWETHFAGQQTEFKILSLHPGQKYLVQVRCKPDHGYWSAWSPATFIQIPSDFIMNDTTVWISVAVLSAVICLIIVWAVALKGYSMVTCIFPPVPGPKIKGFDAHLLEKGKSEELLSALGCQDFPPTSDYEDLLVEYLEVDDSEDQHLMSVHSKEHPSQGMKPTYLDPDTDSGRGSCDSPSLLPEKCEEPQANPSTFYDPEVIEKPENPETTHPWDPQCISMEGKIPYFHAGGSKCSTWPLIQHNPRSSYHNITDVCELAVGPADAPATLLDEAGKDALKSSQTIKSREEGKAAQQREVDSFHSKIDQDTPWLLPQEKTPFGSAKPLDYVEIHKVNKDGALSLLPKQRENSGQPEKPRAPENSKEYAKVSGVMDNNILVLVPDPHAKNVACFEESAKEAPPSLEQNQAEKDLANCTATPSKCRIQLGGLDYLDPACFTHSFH
Nature of the assay: FACS, HEK293/mfPRLR cells. (A flow cytometer gives signals particle by particle.)

Assay [2] concerns the target T2, human prolactin receptor (PRLR) on cells (human, UniProt P16471 25-622).
T2 construct: T47D, T47D#11 and MCF7 carry the endogenous receptor; also called hPRLR; HEK293/hPRLR
T2 sequence: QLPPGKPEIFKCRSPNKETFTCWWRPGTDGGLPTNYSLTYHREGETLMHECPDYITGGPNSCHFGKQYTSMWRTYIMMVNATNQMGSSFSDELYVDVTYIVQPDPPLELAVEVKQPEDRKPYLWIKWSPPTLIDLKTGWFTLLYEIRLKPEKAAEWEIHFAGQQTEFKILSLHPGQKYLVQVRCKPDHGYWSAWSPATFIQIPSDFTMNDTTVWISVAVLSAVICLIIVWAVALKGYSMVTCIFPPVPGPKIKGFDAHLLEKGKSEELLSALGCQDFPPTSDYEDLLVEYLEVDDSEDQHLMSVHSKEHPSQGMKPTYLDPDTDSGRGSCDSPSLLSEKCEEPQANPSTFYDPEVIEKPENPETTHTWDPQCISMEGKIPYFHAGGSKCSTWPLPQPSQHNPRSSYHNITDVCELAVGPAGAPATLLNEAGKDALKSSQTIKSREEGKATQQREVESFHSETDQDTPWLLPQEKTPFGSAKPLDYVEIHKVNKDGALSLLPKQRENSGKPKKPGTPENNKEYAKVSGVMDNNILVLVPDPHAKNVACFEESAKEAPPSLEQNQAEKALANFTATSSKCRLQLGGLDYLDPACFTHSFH
The assay is described as follows: FACS, HEK293/hPRLR cells. Note: test concentration or dose not given here.

In assay [3] the target is T2, human prolactin receptor (PRLR) on cells. Nature of the assay: cell-based or functional assay.
The target of assay [4] is T3, mouse PRLR on HEK293 cells (mouse, UniProt Q08501 20-608).
T3 construct: whole, on cells; also called mPRLR; HEK293/mPRLR
T3 sequence (looked up): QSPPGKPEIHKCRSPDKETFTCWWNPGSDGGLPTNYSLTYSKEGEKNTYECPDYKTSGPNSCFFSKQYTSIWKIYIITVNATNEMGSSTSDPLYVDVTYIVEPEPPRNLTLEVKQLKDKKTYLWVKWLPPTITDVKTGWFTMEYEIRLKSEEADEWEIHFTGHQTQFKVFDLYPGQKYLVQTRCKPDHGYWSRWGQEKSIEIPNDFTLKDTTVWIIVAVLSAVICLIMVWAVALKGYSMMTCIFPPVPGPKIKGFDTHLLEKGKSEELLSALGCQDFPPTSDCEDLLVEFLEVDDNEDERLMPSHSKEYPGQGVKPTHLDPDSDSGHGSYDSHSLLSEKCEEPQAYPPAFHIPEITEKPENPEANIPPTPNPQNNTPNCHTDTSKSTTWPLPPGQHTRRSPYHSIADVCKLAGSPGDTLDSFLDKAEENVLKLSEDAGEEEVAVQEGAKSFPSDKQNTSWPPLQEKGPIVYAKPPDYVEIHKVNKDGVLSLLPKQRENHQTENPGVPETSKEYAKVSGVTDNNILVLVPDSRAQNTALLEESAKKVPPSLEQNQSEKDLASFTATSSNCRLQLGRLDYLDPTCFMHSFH
The assay is described as follows: FACS, HEK293/mPRLR cells. Note: test concentration or dose not given here.

The target of assay [5] is T2, human prolactin receptor (PRLR) on cells. The assay is described as follows: FACS, T47D cells (native PRLR). Note: test concentration or dose not given here.
The target of assay [6] is T4, hPRLR.mmh (soluble monomeric human PRLR) (human).
T4 construct: soluble monomeric construct
T4 chain: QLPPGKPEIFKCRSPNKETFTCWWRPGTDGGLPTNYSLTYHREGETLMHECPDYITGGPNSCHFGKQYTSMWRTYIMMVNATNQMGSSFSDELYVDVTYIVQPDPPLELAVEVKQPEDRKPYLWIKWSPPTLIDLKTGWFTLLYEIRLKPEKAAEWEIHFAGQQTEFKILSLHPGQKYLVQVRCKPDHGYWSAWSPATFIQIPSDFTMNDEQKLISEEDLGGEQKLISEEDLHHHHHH
Nature of the assay: SPR, 37C, mAb capture. How it is done:
(§1) Measurements were conducted on a T200 Biacore instrument. Kinetic association (kₐ) and dissociation (kd) rate constants were determined by processing and fitting the data to a 1:1 binding model using Scrubber 2.0 curve fitting software. Binding dissociation equilibrium constants (KD) and dissociative half-lives (t_{1/2}) were calculated from the kinetic rate constants as: KD (M)=kd/kₐ; and […].

Assay [7] deals with T5, hPRLR.mFc (soluble dimeric human PRLR) (human).
T5 construct: dimeric construct
T5 chain: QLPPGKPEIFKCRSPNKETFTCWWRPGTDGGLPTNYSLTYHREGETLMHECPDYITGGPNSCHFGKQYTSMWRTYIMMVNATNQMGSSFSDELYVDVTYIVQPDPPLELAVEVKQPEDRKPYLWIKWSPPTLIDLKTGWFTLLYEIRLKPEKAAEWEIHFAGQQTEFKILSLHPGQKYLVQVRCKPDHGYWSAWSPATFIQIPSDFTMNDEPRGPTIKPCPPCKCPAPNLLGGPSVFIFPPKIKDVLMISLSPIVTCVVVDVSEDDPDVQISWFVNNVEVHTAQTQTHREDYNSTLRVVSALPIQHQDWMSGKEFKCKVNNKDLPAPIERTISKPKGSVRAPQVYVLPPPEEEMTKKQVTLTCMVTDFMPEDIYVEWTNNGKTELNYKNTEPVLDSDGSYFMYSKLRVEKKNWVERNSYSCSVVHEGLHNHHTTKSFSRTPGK
Nature of the assay: SPR, 37C, mAb capture. How it is done:
as §1
(Surface plasmon resonance follows binding to a sensor surface in real time, without labels.)

Assay [8] has as its target T6, mfPRLR.mmh (soluble monomeric macaca fascicularis PRLR) (macaca fascicularis).
T6 construct: soluble monomeric construct; also called macaca fascicularis (mf) PRLR.mmh
T6 chain: T4 chain with I76V, A110T, I125M, I158T, T207I
The assay is described as follows: SPR, 37C, mAb capture. How it is done:
as §1

Assay [9] concerns the target T7, IL-6R (human, UniProt P08887 20-468).
T7 construct: whole, on cells
T7 sequence (looked up): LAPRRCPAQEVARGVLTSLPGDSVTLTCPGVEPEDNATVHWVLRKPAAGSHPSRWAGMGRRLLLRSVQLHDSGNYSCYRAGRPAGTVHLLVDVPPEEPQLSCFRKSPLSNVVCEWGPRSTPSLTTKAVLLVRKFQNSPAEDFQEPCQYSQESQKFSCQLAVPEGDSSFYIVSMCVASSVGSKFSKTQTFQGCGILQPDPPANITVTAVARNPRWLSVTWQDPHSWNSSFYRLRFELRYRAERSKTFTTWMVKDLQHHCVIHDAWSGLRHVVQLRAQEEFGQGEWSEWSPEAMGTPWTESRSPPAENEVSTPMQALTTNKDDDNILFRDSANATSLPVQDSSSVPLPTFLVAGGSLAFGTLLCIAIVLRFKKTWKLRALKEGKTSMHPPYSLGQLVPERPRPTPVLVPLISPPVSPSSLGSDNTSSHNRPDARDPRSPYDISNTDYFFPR
The assay is described as follows: FACS on KG-1 cells (endogenous IL-6R), PE anti-human secondary, MFI above isotype control.

In assay [10] the target is T8, human prolactin receptor (PRLR), cell surface-expressed (human, UniProt P16471 25-622).
T8 sequence: T2 sequence
Nature of the assay: cell-based or functional assay.

In assay [11] the target is T8, human prolactin receptor (PRLR), cell …. The assay is described as follows: cell-based or functional assay. This is another data set of the same source.
Assay [12] shares this target. Nature of the assay: cell-based or functional assay. This is another data set of the same source.
Assay [13] has the same target. Nature of the assay: cell-based or functional assay. This is another data set of the same source.
Assay [14] has the same target. The assay is described as follows: cell-based or functional assay. The source holds these as a separate data set.

Numbering of substitutions follows the chain as printed. Where two headings read alike, the source gives them in different places.

B1: H1H6960N (antibody, human IgG1, V domains shown)
VH: EVQLVESGGGLVKPGGSLRLSCAASGITFSSYSMNWVRQAPGKGLEWVSSISTRSSLIHYADSVKGRFTISRDNAKNSLYLQMNSLRDEDTAVYYCARWDAAAAFDYWGQGTLVIVSS
VL: DIQLTQSPSFLSASVGDRVTITCWASQGISSYLAWYQQKPGKAPKLLIYVASTLQSGVPSRFSGSGSGTEFTLTISSLQPEDFATYFCQQLNSYPLTFGGGTKVEIK
notes: also called H2M6960N
As for B1, the “FACS Cell Binding (Fold Above Background)” value in assay [1] is 23 fold above background; in [2], 29 fold above background; in assay [4], 1 fold above background; in [5], 33 fold above background. Further, in assay [3], the “% Internalization relative to Control I (alexa488 intensity in intracellular vesicles at 37 C, T47D cells)” value was 120%. Further, the T½ came to 5.8 min in assay [6], 78.7 min in [7] and 9 min in [8].

B2: VV6A9-5 (antibody, V domains shown)
VH: EVQLVESGGGLVQPGRSLRLSCAASGFTFDDYALHWVRQAPGKGLEWVSGVSWNGGRIGYADSVKGRFTISRDNAKNSLFLQMNSLRVEDTALYYCAKGRDAFDIWGQGTLVTVSS
VL: DIQMTQSPSSVSASVGDRVTITCRASQGISSWLAWYQQKPGKAPKLLIYAASSLQSGVPSRFSGSGSGTDFTLTISSLQPEDFATYYCQHAYSFPYTFGQGTKLEIK
In the case of B2, the “MFI fold over background” value in [9] came out at 7 fold over background.

B3: H1H6782P-SMCC-DM1 (antibody, human IgG1, V domains shown)
VH: EVQLVESGGGLVQPGRSLRLSCAASGFTFDDYAMHWVRQAPGKGLEWVSGIIWNSGHIGYGDSVKGRFTISRDNAKKSLYLQMNSLRAEDTALYYCARDSGRYQSYFDYWGQGTLVTVSS
VL: DIQMTQSPSTLSASVGDRVTITCRASHIISSWLAWYQQKPGKAPKVLIFKASSLESGVPSRFSGSGSGTEFTLTISSLQPDDFATYYCQQYNTYSRTFGQGTKVEIK
modifications: DM1 conjugated through an SMCC linker; attachment residues not stated
With B3, the “IC50, cell viability, T47D cells” value in [10] stood at 1 nM.

B4: H1H6953N-SMCC-DM1 (antibody, human IgG1, V domains shown)
VH: EVQLLESGGGLVQPGGTLRLSCAASGFTFSAYAMSWVRQAPGKGLEWVSSINVRAGDTYYADSVKGRFTISRDNSKNTLFLLMNSLRAEDTAAYYCAKARYSSNWGFDFWGQGTLVTVSS
VL: DIVMTQSPDSLTVSLGARTTINCQSSQTILHSSNNHNYLAWYQQKPGLPPKLLIYWSSTRESGVPDRFSGSGSGTDFTLTISSLQAEDVAIYYCQQYSNTPYTFGQGTKLEIN
modifications: DM1 conjugated through an SMCC linker; attachment residues not stated
Regarding B4, the “IC50, cell viability, PC3/PRLR cells” value in [11] was 0.68 nM. For the same molecule, in assay [12], the “IC50, cell viability, 293/PRLR cells” value came to 0.43 nM. In addition, in assay [13], the “IC50, cell viability, MCF7/PRLR cells” value came out at 0.33 nM; the “IC50, cell viability, MCF/PRLR + ErbB2 cells” value came out at 0.33 nM; the “IC50, cell viability, NCI-N87/PRLR cells” value is 2.9 nM. In [14], the “IC50, cell viability, MCF7 cells” value turned out to be 82 nM; the “IC50, cell viability, T47D cells” value is 1.3 nM; the “IC50, cell viability, T47D/ErbB2 cells” value amounted to 2.4 nM.

B5: H1H6966N (antibody, human IgG1, V domains shown)
VH: QVQLVQSGAEVQKPGASVKVSCKVSGYTLTALSIHWVRQAPGKGLEWMGNFDPGDGETIHAQKFQGRVTMTGDTSTDTAYMELSSLRSEDTAVYYCVGVTFDYWGQGTLVTVSS
VL: EIVMTQSPATLSVSPGERATLSCRASQSVASNLAWYQQKPGQAPRLLLYGASTRATGIPARFSGSGSGTEFTLTISSLQSEDFALYYCQHYNNWPLTFGGGTKVEIK
notes: also called H2M6966N
Turning to B5, the “FACS Cell Binding (Fold Above Background)” value was 18 fold above background in assay [1], 29 fold above background in assay [2], 1 fold above background in assay [4] and 31 fold above background in assay [5]. Further, the “% Internalization relative to Control I (alexa488 intensity in intracellular vesicles at 37 C, T47D cells)” value in [3] is 137%. The T½ stood at 12 min in assay [6], 91.3 min in assay [7] and 9.6 min in [8].
